The source of these data is publication PMC6631230, “Efficient Screening of Combinatorial Peptide Libraries by Spatially Ordered Beads Immobilized on Conventional Glass Slides” (High-Throughput, 2019).

One test deals with mouse IgG.
Assay: not given
The conditions noted are these: literature IgG-binding peptide listed in Table 3; read-out: KD (equilibrium dissociation constant), literature value; cited from earlier work. The text has this: Table 3 Equilibrium dissociation constants (KD) for peptide mouse IgG interaction determined by SPR. | column: KD, µM
Turning to HFRRHL, the Kd was 26 µM.
As to HWRGWV, the dissociation constant (Kd) is 10 µM.

A further test addresses polyclonal mouse IgG (mouse). Description: SPR; antibody immobilised by amine coupling on an HC200 chip (Reichert SR7500DC); peptides flowed in HBS-EP (pH 7.4, 0.01 M HEPES, 0.15 M NaCl, 3 mM EDTA, 0.005% Tween 20); multiple kinetics mode.
Details: not given
In the case of GEPFSIP [IgG BP 3], the Kd was found to be 20 µM.
Molecule SHSGIFR [IgG BP 4] gave a Kd of 60 µM.
With GIHPFGR [IgG BP 2], the Kd is 50 µM.
GRIHGPR [IgG BP 1] came in with a Kd of 14 µM.
